The target in the test is CD19 on B cells and plasma cells in PBMCs (human) (UniProt P15391). Briefly: cell-based or functional assay.

Here are results for one substance from patent US20250154287A1.

CD19 on B cells and plasma cells in PBMCs (human), sequence (P15391 20-556): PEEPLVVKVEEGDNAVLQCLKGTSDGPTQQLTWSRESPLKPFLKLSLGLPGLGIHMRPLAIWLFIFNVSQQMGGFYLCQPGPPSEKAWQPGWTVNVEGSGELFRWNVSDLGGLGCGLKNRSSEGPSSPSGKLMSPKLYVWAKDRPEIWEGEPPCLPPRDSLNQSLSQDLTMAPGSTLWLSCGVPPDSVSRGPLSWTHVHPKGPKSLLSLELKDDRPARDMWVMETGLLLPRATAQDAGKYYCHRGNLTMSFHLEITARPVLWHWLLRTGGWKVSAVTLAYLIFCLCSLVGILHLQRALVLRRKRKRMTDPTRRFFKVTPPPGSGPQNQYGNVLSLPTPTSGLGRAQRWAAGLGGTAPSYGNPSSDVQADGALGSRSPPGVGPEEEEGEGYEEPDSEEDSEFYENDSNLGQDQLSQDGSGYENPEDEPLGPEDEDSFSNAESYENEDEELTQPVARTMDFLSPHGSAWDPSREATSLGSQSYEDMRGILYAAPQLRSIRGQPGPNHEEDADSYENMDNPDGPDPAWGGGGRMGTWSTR

“CD19-CD3 scFv (InvivoGen, Cat number Bimab-cd19cd3-01)” had an EC50 (nM), cytotoxicity against IgA^+ CD20^+ B cells by flow cytometry of 0.00325 nM; an EC50 (nM), reduction in secreted IgA in human PBMC supernatants of 0.0368 nM; a Top (MFI) as printed, cytotoxicity against IgA^+ CD20^+ B cells by flow cytometry of 92.8; a reduction of secreted IgA in PBMC supernatants (IgA ELISA) of 57%.
